This is an account of results in publication PMC3178889 (Nature neuroscience, 2011).

The chains are these.
B1: cone Tα: cone transducin α-subunit (protein)
chain: MGSGASAEDKELAKRSKELEKKLQEDADKEAKTVKLLLLGAGESGKSTIVKQMKIIHQDGYSPEECLEYKAIIYGNVLQSILAIIRAMPTLGIDYAEVSCVDNGRQLNNLADSIEEGTMPPELVEVIRKLWKDGGVQACFDRAAEYQLNDSASYYLNQLDRITAPDYLPNEQDVLRSRVKTTGIIETKFSVKDLNFRMFDVGGQRSERKKWIHCFEGVTCIIFCAALSAYDMVLVEDDEVNRMHESLHLFNSICNHKFFAATSIVLFLNKKDLFEEKIKKVHLSICFPEYDGNNSYEDAGNYIKSQFLDLNMRKDVKEIYSHMTCATDTQNVKFVFDAVTDIIIKENLKDCGLF
B2: recoverin: Ca^2+-binding protein recoverin (protein)
chain: MGNSKSGALSKEILEELQLNTKFTEEELSAWYQSFLKECPSGRITRQEFESIYSKFFPDSDPKAYAQHVFRSFDANSDGTLDFKEYVIALHMTTAGKPTQKLEWAFSLYDVDGNGTISKNEVLEIVMAIFKMIKPEDVKLLPDDENTPEKRAEKIWAFFGKKEDDKLTEEEFIEGTLANKEILRLIQFEPQKVKERIKEKKQ
B3: GCAP1: N-myristoylated GCAP1, Ca^2+-binding protein (protein)
chain: MGNIMEGKSVEELSSTECHQWYKKFMTECPSGQLTLYEFRQFFGLKNLSPSASQYVEQMFETFDFNKDGYIDFMEYVAALSLVLKGKVEQKLRWYFKLYDVDGNGCIDRDELLTIIRAIRTINPWSDSSMSAEEFTDTVFAKIDINGDGELSLEEFMEGVQKDQMLLDTLTRSLDLTGIVRRLQNGEHEEAGTGDLAAEAAG
modifications: N-myristoylated
B4: farnesylated Tγ: farnesylated transducin γ-subunit (protein)
chain: MPVINIEDLTEKDKLKMEVDQLKKEVTLERMMVSKCCEEVRDYIEERSGEDPLVKGIPEDKNPFKELKGGCVIS
modifications: farnesylated

“Also recorded” adds a separate entry of the source.

The test system of the test is GST-UNC119. The test can be described thus: GST-UNC119 pulldown of proteins from retina lysates or HEK cells. The note with it: bovine or mouse retina lysate; Coomassie/LC-MS/MS or immunoblot. The format is binding, bovine.
Take B1: the “interaction with GST-UNC119 in pulldown from retina lysate” value (from here on “interaction with GST-UNC119 in pulldown”) was “Pulldown of rod and cone Tα”.

B2: the “interaction with GST-UNC119 in pulldown” value is reported as “failed to interact”.

As to B3, the “interaction with GST-UNC119 in pulldown” value was “does not interact with GST-UNC119; also recorded: failed to interact”.

In the case of B4, the “interaction with GST-UNC119 in pulldown” value is “not with farnesylated Tγ”.
